Results published in patent US20240092918A1 (Novartis, published 2024).

Experiments:
Human CCR7 [1] = molecular target: T1, Human CCR7 (human, UniProt P32248 25-378); assay: cell-based or functional assay
T1 sequence: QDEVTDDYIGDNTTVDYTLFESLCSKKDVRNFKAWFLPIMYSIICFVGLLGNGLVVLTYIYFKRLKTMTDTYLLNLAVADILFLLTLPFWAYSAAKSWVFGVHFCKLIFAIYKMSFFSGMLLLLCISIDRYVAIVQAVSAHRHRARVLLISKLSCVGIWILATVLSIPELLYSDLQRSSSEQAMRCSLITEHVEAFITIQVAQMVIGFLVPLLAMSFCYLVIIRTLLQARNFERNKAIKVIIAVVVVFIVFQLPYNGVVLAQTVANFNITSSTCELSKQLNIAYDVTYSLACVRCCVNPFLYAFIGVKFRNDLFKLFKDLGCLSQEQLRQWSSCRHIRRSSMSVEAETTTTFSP

Human CCR7 [2] = molecular target: T1, Human CCR7; assay: FACS binding assay
Human CCR7 [3] = molecular target: T1, Human CCR7; assay: cell-based or functional assay; remark: listed apart in the source

B1: 674J13 non-humanized CysMab (antibody, human IgG1, kappa, V domains shown)
VH: DVQLQESGPDLVKPSQSLSLTCTVTGYSITSGYSWHWIRQFPGNKLEWMAHIHSSGSTNYNPSLKSRISIIRDTSKNLFFLQLNSVTTEDTATYYCARGGVQAFAYWGQGTLVTVSA
VL: QIVLTQSPAIMSASPGEKVTMTCSASSSVIYMHWYQQKSGTSPKRWIYDTSKLASGVPARFSGSGSGTSYSLTISSMEAEDAATYYCQQWSSNPLTFGAGTTLELKR
With B1 the “ADCC activity; IC50 (nM); surrogate ADCC reporter assay, JVM2 target cells and Jurkat-V158 effector cells” value (“ADCC activity; IC50 (nM)” below) (Human CCR7 [1]) was 1.09 nM.

B2: 121G12.CysMab.DAPA.MPET.DM4 (antibody, human IgG1, kappa)
heavy: EVQLVESGGGLVKPGGSLRLSCAASGFTFSTYAMSWVRQAPGKGLEWVATISDAGSYSYYPDNVKGRFTISRDNAKNSLYLQMNSLRAEDTAVYYCARRGSRYEEYYVMDYWGQGTTVTVSSASTKGPSVFPLAPSSKSTSGGTAALGCLVKDYFPCPVTVSWNSGALTSGVHTFPAVLQSSGLYSLSSVVTVPSSSLGTQTYICNVNHKPSNTKVDKRVEPKSCDKTHTCPPCPAPELLGGPSVFLFPPKPKDTLMISRTPEVTCVVVAVSHEDPEVKFNWYVDGVEVHNAKTKPREEQYNSTYRVVSVLTVLHQDWLNGKEYKCKVSNKALAAPIEKTISKAKGQPREPQVYTLPPSREEMTKNQVSLTCLVKGFYPCDIAVEWESNGQPENNYKTTPPVLDSDGSFFLYSKLTVDKSRWQQGNVFSCSVMHEALHNHYTQKSLSLSPGK
light: EIVLTQSPATLSVSPGERVTLSCRASQSISNNLHWYQQKPGQAPRLLIKYASQSISGIPARFSGSGSGTDFTLTISSVEPEDFGVYFCQQSSSWLTFGQGTKLEIKRTVAAPSVFIFPPSDEQLKSGTASVVCLLNNFYPREAKVQWKVDNALQSGNSQESVTEQDSKDSTYSLSSTLTLSKADYEKHKVYACEVTHQGLSSPVTKSFNRGEC
modifications: MPET.DM4 linker-drug on the engineered cysteines (E152C, S375C, EU numbering); DAR 3.79
notes: also called 121G12.CysMab.DAPA.MPET.DM4 (DAR 3.8); MPET.DM4 ADC
For B2, the “geometric mean fluorescence intensity, difference from the unconjugated antibody” value (Human CCR7 [2]) was at most 20%, the “In vitro cytotoxic activity, IC50 (nM); DEL cells (relative receptor density 67%)” value (Human CCR7 [3]) was 2.28 nM and the “In vitro cytotoxic activity, IC50 (nM); JVM2 cells (relative receptor density 79%)” value (Human CCR7 [3]) was 4.62 nM. For the same binder, the “In vitro cytotoxic activity, IC50 (nM); KE97 cells (relative receptor density 100%)” value (Human CCR7 [3]) was 2.24 nM, the “In vitro cytotoxic activity, IC50 (nM); L540 cells (relative receptor density 175%)” value (Human CCR7 [3]) was 4.9 nM and the “In vitro cytotoxic activity, IC50 (nM); MOTN1 cells (relative receptor density 67%)” value (Human CCR7 [3]) was 4.24 nM. The “In vitro cytotoxic activity, IC50 (nM); Mec-2 cells (relative receptor density 15%)” value (Human CCR7 [3]) was over 20 nM, the “In vitro cytotoxic activity, IC50 (nM); OCI-Ly3 cells (relative receptor density 43%)” value (Human CCR7 [3]) was 6.42 nM and the “In vitro cytotoxic activity, IC50 (nM); PEER cells (relative receptor density 2%)” value (Human CCR7 [3]) was over 20 nM. For the same binder, the “In vitro cytotoxic activity, IC50 (nM); SUPHD1 cells (relative receptor density 310%)” value (Human CCR7 [3]) was 1.69 nM.

B3: 121G12.DAPA.sSPDB.DM4 (antibody, human IgG1, kappa)
heavy: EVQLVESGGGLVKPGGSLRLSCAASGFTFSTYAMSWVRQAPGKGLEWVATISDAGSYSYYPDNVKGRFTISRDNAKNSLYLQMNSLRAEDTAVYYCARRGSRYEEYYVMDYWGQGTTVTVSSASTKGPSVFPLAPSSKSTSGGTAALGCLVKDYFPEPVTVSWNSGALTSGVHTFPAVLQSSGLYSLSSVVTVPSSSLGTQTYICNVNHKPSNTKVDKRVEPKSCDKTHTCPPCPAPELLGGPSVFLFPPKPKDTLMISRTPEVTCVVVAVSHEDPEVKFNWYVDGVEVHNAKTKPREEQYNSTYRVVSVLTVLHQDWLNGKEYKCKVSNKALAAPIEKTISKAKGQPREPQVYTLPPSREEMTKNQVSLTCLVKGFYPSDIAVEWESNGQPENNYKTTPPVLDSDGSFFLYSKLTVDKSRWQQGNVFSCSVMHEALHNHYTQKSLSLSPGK
light: EIVLTQSPATLSVSPGERVTLSCRASQSISNNLHWYQQKPGQAPRLLIKYASQSISGIPARFSGSGSGTDFTLTISSVEPEDFGVYFCQQSSSWLTFGQGTKLEIKRTVAAPSVFIFPPSDEQLKSGTASVVCLLNNFYPREAKVQWKVDNALQSGNSQESVTEQDSKDSTYSLSSTLTLSKADYEKHKVYACEVTHQGLSSPVTKSFNRGEC
modifications: sulfo-SPDB-DM4 on endogenous lysines, sites not defined; sulfo-SPDB-DM4 on endogenous lysines, sites not defined (DAR 3.6 as prepared; labelled DAR3.9 in the assays)
notes: also called 121G12.DAPA.sSPDB.DM4 (DAR3.9); sSPDB.DM4 ADC
B3 was tested, and the “geometric mean fluorescence intensity, difference from the unconjugated antibody” value (Human CCR7 [2]) was at most 20%.

B4: 121G12 non-humanized CysMab (antibody, human IgG1, kappa, V domains shown)
VH: EVQLVESGGGLVKPGGSLKLSCAASGFTFSTYAMSWVRQTPEKRLEWVATISDGGSYSYYPDNVKGRFTISRDNAKNNLYLQMSHLKSEDTAMYYCARRGSRYEEYYVMDYWGQGTSVTVSS
VL: DIVLTQSPATLSVTPGDSVSLSCRASQSISNNLHWYQQKSHESPKLLIKYASQSISGIPSRFSGSGSGTDFTLSINSVETEDFGMYFCQQSNSWLTFGAGTKLGLKR
For B4, the “ADCC activity; IC50 (nM)” value (Human CCR7 [1]) was 0.077 nM.

B5: 121G12.CysMab.AURIX1 (antibody, human IgG1, kappa, V domains shown)
VH: EVQLVESGGGLVKPGGSLKLSCAASGFTFSTYAMSWVRQTPEKRLEWVATISDGGSYSYYPDNVKGRFTISRDNAKNNLYLQMSHLKSEDTAMYYCARRGSRYEEYYVMDYWGQGTSVTVSS
VL: DIVLTQSPATLSVTPGDSVSLSCRASQSISNNLHWYQQKSHESPKLLIKYASQSISGIPSRFSGSGSGTDFTLSINSVETEDFGMYFCQQSNSWLTFGAGTKLGLKR
modifications: AURIX1 on the engineered cysteines; DAR 3.80
notes: also called 121G12.AURIX1; 121G12 parental.Cys-Mab.wild type Fc.hIgG1.AURIX1
B5 was tested, and the “geometric mean fluorescence intensity, difference from the unconjugated antibody” value (Human CCR7 [2]) was at most 20%.

B6: 684E12 non-humanized CysMab (antibody, human IgG1, kappa, V domains shown)
VH: EVHLVESGGGLVKPGGSLKLSCAASGFTFSNFAMSWVRQTPEKRLEWVATISTGGTYTYYPDSVKGRFTISRDNAKKTLYLQMSSLRSEDTAMYYCTRRGYDGVDKWGQGTTLTVSS
VL: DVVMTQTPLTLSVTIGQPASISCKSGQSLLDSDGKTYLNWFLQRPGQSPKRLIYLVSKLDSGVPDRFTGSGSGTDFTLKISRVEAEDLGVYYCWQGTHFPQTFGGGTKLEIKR
With B6 the “ADCC activity; IC50 (nM)” value (Human CCR7 [1]) was 2.63 nM.

B7: 684E12.SMCC.DM1 (antibody, V domains shown)
VH: EVHLVESGGGLVKPGGSLKLSCAASGFTFSNFAMSWVRQTPEKRLEWVATISTGGTYTYYPDSVKGRFTISRDNAKKTLYLQMSSLRSEDTAMYYCTRRGYDGVDKWGQGTTLTVSS
VL: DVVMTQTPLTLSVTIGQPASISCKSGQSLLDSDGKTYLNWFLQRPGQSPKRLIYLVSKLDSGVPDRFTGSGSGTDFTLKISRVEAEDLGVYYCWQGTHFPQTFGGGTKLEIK
modifications: SMCC-DM1 on lysines of the antibody, sites not defined; DAR 2.6
notes: also called parental 684E12.SMCC.DM1 (DAR2.6)
For B7, the “geometric mean fluorescence intensity, difference from the unconjugated antibody” value (Human CCR7 [2]) was at most 20%.
